Test results: patent US7888291B2, “Substrates and assays for β-secretase” (Elan Pharmaceuticals, Inc., priority 2000, dated 2011)
Non-standard residues stand in square brackets, D forms with d. No end group written: not given here. Sta = CC(C)C[C@H](N)[C@@H](O)CC(=O)O

Tests used:
Hu-Asp [1] = target: T1, Hu-Asp (Homo sapiens, UniProt P56817); assay: Hu-Asp cleavage assay variation for substrates of SEQ ID NO:190 and 191 (Vmax, Km, pH, ionic strength, DMSO); format: biochemical; set-up: made in house; host or cells: High Five insect cells; details: 100 mM NaOAc/HOAc, pH 4.5 (stated for SEQ ID NO:190 and 191)
Description: In the substrates SEISY-EVEFRWKK (SEQ ID NO:190) and GLTNIKTEEISEISY-EVEFRWKK (SEQ ID NO:191), the 10 N-terminal amino acids of peptide SEISY-EVEFRWKK (SEQ ID NO:190) are identical to those of peptide SEISY-EVEFR (SEQ ID NO:152). The difference between the two peptide is the presence of a tryptophan and two lysines in the peptide of SEQ ID NO:190. […] Hu-Asp activity was tested towards SEISY-EVEFRWKK (SEQ ID NO:190) and GLTNIKTEEISEISY-EVEFRWKK (SEQ ID NO:191). […] The activity difference between the two peptides was particularly dramatic in the pH range 4.0-4.6. Specifically, it was 6.3-4.8 times higher for the peptide of SEQ ID NO:191. […] Both peptides were inhibited by increasing concentrations of DMSO. […] As expected, the N-terminus elongation increases activity. […] The development of the substrates of SEQ ID NO:190 and SEQ ID NO:191 is of great value in Hu-Asp inhibition studies and in studies concerning recombinant Hu-Asp refolding from E. coli inclusion bodies.
In a variation of the above assay for substrates of SEQ ID NO:190 or its N-terminally extended version depicted in SEQ ID NO:191), the substrates are incubated with the enzyme to a final reaction solution volume of 200 μl (although reaction mixtures of 50-100 μl also were used) composed of 5-50 μM peptide substrate, 1-10 nM enzyme, 0.1. M sodium acetate buffer at pH 4 to 5. […]

[2] = Solubility of peptide substrate; format: physicochemical; details: effect of the addition of two lysines
Hu-Asp [3] = target: T1, Hu-Asp; assay: Inhibition of HuAsp enzyme activity by statine-containing peptide; format: biochemical
HEK-293 cells = assay: ELISA of secreted Aβ40 and Aβ42 in medium of transfected HEK-293 cells; format: cell-based, human; details: medium of the transfected HEK-293 cells
Description: As one indicator of APP processing, levels of secreted Aβ from the medium of the transfected HEK-293 cells were measured. Measurements were by ELISA using antibody 6E10 (Syntek, St. Louis, Mo.) to capture Aβ and antibody 208 for Aβ40 and antibody 165 for Ap42. […] Using additional constructs in peptide activity assays, it was determined that if an Asn residue was substituted in place of a Ser to give SEVNY-↓-EVEFR (SEQ ID NO:170), this peptide has an activity that is only ⅕ than that of SEVSY-↓-EVEFR (SEQ ID NO:141; Table 4). This observation reaffirms that amino acid optimization at a certain position depends on the rest of the substrate sequence.

Hu-Asp2 [4] = target: T2, Hu-Asp2 (Homo sapiens, UniProt P56817); assay: Hu-Asp2 peptide substrate cleavage assay (HPLC quantitation of cleavage products); format: biochemical
T2 construct: made in house; host or cells: High Five insect cells

Hu-Asp2 [5] = target: T2, Hu-Asp2; assay: as above; format: biochemical
Description: The peptides listed in Table 2 were designed, synthesized, and tested for activity as substrates for Hu-Asp2. 200 μM of each test substrate was incubated with 210 nM Hu-Asp2 enzyme at pH 4.5 at 37° C. for 3 hours. Of course it should be understood that these are merely exemplary assay conditions, and those of skill in the art will be able to vary these conditions and yet still provide appropriate Hu-Asp2 activity. For example, it is envisioned that the assays may be conducted at a pH range of from between about 4.0 to about 7.0. The amount of enzyme added to a given reaction mixture may also be varied and those of skill in the art will be able to perform assays defining the optimal enzyme concentrations necessary for a given assay, as such 150 nm; 200 nm; 250 nm; 300 nm or more or less enzyme may be added. Substrate concentration in those also may be varied such that an assay may use 100, 150 μM, 200 μM, 250 μM, 300 μM, 350 μM or more or less of any given; substrate. It may be that one substrate produces an optimum activity at one concentration whereas another substrate is needed to be present at a different concentration to produce an optimum cleavage rate. However, such optimizations of enzyme assay conditions is well within the skill of those in the art and will not require undue experimentation.
In an exemplary assay to determine the cleavage of the substrates of the present invention, Asp2 was prepared from High Five™ insect cells. Generally, the assasy are run in solution at acidic pH (4.0 to 5.0), at 25-37° C. in the presence of nM or sub-nanomolar enzyme. After a suitable period of incubation the reaction is stopped at a desired time by addition of 4% trifluoracetic acid (TFA). Substrates and products are separated using reverse phase HPLC. The disappearance of the substrates and the appearance of the products are monitored by continuous measurement of the absorbance of the effluent at […]. Furthermore, if the peptide comprises a tryptophan residue, the monitoring may additionally or alternatively involve continuous monitoring of fluorescence of tryptophan fluorescence (excitation at 280 nm, emission at […]) of the effluent.
In a typical assay, 210 nM enzyme and 200 μM substrate were incubated in 0.2 M sodium acetate at pH 4.5 in 100 μl volume at 37° C. for 1 to 3 hours. The assay was stopped by the addition of 50 μl 4% TFA to lower the pH below the active range of the enzyme. Subsequently, 100 μl of this mixture was injected into a Hewlett Packard Model 1090 HPLC equipped with a Vydac column (4.6 mm i.d.×150 mm, 5 μm) pre-equilibrated with 95% A (0.15% TFA in water), 5% B (0.15% TFA in acetonitrile). The constituents were then eluted from the column with the following linear gradients: 0-15 min: 5-50% B; 15-17 min: 50-100% B; 17-20 min: 100-5% B; 20-22 min: 5% B). The cleavage products were then quantitated using an enhanced integrator. […]

T1 sequence (P56817 46-501): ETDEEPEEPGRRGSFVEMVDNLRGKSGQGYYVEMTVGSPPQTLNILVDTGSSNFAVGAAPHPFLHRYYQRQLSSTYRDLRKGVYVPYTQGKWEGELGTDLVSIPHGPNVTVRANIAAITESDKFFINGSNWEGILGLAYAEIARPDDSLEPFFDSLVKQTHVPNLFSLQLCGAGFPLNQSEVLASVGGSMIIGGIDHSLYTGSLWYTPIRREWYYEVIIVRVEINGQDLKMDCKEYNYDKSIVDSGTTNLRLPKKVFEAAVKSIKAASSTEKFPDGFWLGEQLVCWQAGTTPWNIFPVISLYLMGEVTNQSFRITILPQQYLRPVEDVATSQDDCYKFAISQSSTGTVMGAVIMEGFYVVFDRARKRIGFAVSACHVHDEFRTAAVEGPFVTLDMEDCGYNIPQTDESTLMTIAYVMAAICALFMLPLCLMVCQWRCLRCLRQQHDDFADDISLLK
T2 sequence (P56817 46-501): as above

Substance: GLTNIKTEEISEISYEVEFRWKK [SEQ ID NO:191, GLTNIKTEEISEISY-EVEFRWKK]
- Km (Hu-Asp [1]): 43.1 µM

Substance: SEISYEVEFRWKK [SEQ ID NO:190, SEISY-EVEFRWKK]
- Km (Hu-Asp [1]): 86.7 µM
- solubility [2]: increased solubility

Substance: SEVN[Sta]VAEFRGGC [statine-containing peptide]
- inhibition of HuAsp enzyme activity (Hu-Asp [3]): shown to inhibit HuAsp enzyme activity

Substance: SEVSY-↓-EVEFR (SEVSYEVEFR)
- production of secreted Aβ40 and Aβ42 (HEK-293 cells): easily measurable levels of Aβ
- activity compared with Swedish mutant peptide (SEQ ID NO:19) (Hu-Asp2 [4]; Table 4): 1.4 fold
- Relative rate of Cleavage (Hu-Asp2 [4]; Table 4, 200 nM enzyme, 200 μM substrate, pH 4.5, 37° C., 1 hr, SEQ ID NO:19 = 100): 141.8
- Cleavage Activity (Hu-Asp2 [4]; Table 5, 2 nM enzyme, 50 μM substrate, 25 mM Sodium acetate, pH 4.4, 37° C., 2 hr): 0.16 µmol/min/mg
- Relative rate of Cleavage (Hu-Asp2 [4]; Table 5, 2 nM enzyme, 50 μM substrate, 25 mM Sodium acetate, pH 4.4, 37° C., 2 hr, SEQ ID NO:141 = 100): 100
- activity as substrate of Hu-Asp2 (in words) (Hu-Asp2 [5]): activity superior to the Swedish mutation
